Consider two molecules from publication PMC9378701, “SH3 domain regulation of RhoGAP activity: Crosstalk between p120RasGAP and DLC1 RhoGAP” (Nature Communications, 2022).

Test [1] deals with DLC1 RhoGAP (Homo sapiens) (UniProt Q96QB1). Put plainly: kinetics. The following applies: cited from earlier work.
Test [2] has the same target. The test can be described thus: ITC. The following applies: cited from earlier work.
Test [3] concerns the target T1, DLC1 RhoGAP domain (residues 1074-1283), His6-tagged (human, UniProt Q96QB1 1074-1283).
T1 construct: RhoGAP domain of human DLC1A, residues 1074-1283 of UniProt Q96QB1 isoform 2; Vector pET28-MHL; also called DLC1A; His6-DLC1; source: E. coli BL21(DE3) or Rosetta(DE3), purified (Ni-NTA, SEC)
T1 sequence (looked up): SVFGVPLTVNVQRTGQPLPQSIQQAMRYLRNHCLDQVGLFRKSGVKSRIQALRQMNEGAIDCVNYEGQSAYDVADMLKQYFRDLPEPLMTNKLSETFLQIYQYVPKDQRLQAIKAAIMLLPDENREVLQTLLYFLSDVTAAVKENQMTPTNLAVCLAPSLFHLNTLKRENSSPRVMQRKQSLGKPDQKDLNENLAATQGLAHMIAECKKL
Put plainly: crystal structure; copurified complex of DLC1 RhoGAP with p120RasGAP SH3 at 18 mg/ml; 0.2 M magnesium nitrate, 16.5% PEG 3350, hanging drops, ambient temperature (~22 °C); 3.2 Å, four copies of the complex in the asymmetric unit. Conditions: both partners purified.

DLC1 RhoGAP (Homo sapiens), sequence (Q96QB1 1075-1287): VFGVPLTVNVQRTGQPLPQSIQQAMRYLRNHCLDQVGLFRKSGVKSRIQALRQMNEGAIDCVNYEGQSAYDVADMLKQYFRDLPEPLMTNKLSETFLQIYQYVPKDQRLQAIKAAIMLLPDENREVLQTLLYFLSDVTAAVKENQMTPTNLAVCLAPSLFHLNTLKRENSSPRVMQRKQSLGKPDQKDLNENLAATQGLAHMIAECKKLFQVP

Regarding p120RasGAP SH3 (from UniProt P20936), the Ki in test [1] is 600 nM. Also, the Kd in test [2] was 600 nM.

B1: p120RasGAP SH3 domain (residues 281-341) (domain or fragment, human, UniProt P20936 281-341, looked up)
chain: RRRVRAILPYTKVPDTDEISFLKGDMFIVHNELEDGWMWVTNLRTDEQGLIVEDLVEEVGR
notes: SH3 domain of human p120RasGAP, residues 281-341 of UniProt P20936; Vector pGEX-6p1; also called SH3 WT; RASA1; source: E. coli BL21(DE3) or Rosetta(DE3), purified (glutathione Sepharose, PreScission cleavage on beads, SEC)
For the molecule B1, the binding result in test [3] is reported as “binds”.

By Ki is commonly meant a measure of affinity in units of concentration, obtained from inhibition or displacement. A word on the Kd: it is a measure of binding affinity in units of concentration.
